Reference: PMC5068848

T1: PBF (prolamin-box binding factor) (Zea mays, UniProt O24463 1-328)
T1 sequence: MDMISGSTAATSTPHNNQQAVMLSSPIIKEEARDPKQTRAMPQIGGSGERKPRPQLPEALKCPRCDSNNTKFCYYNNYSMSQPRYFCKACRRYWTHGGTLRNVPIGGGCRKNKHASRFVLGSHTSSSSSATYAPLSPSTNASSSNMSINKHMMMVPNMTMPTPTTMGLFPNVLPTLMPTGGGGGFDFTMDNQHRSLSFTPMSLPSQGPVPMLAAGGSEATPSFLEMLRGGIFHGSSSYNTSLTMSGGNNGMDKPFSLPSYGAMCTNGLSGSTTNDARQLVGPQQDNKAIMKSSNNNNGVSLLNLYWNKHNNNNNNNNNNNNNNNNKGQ

B1: z1B-P2 (dsDNA)
DNA 1: CAAAGCCAACTAGATACCACATCATCTCTAGCTTATCTTA
DNA 2: TAAGATAAGCTAGAGATGATGTGGTATCTAGTTGGCTTTG
B2: z1D-P1 (dsDNA)
DNA 1: TTTTGTGCAAATTGTTTTGTCGACATATAAAGTGTAAGATAAGAAA
DNA 2: TTTCTTATCTTACACTTTATATGTCGACAAAACAATTTGCACAAAA
B3: z1B-P3 (dsDNA)
DNA 1: AACTCAATCTACATAAGCACAAGGTCTAACATGTGTATAA
DNA 2: TTATACACATGTTAGACCTTGTGCTTATGTAGATTGAGTT
B4: z1C O2-box (dsDNA)
DNA 1: GAGATCTTGCATGTCATTCCACGTAGATAAAAAGAATGCATATATA
DNA 2: TATATATGCATTCTTTTTATCTACGTGGAATGACATGCAAGATCTC
B5: z1A O2-like box (dsDNA)
DNA 1: ATCAAGTTTGTCTTGCTTACGTATAAATTATAACCCAACA
DNA 2: TGTTGGGTTATAATTTATACGTAAGCAAGACAAACTTGAT
B6: z1C P-box (dsDNA)
DNA 1: TCATGTTAATGTTGTCACATGTGTAAAGGTGAAGAGATCTTGCATGT
DNA 2: ACATGCAAGATCTCTTCACCTTTACACATGTGACAACATTAACATGA
B7: z1A P box (dsDNA)
DNA 1: GGCTATCGTTACACATGTGTAAAGGTATTGCATCACACCATT
DNA 2: AATGGTGTGATGCAATACCTTTACACATGTGTAACGATAGCC

target: OHP1 (Zea mays, UniProt Q03462 1-405); test: EMSA

Binding result, binds:
B1
B2
B3
B4
B5

target: T1, PBF (prolamin-box binding factor); test: EMSA

Binding result, binds:
B6
B7
